Target: the molecule itself
Assay: SEC; Superdex 200 10/300 GL, 50 mM Tris-HCl pH 7.6, 150 mM NaCl; 50 nmol NgCuNiR; apparent molecular weight from a calibration curve (Gel Filtration Calibration Kit, High Molecular Weight)

B1: copper-containing nitrite reductase from Neisseria gonorrhoeae, soluble domain (enzyme)
chain: AAQATAETPAGELPVIDAVTTHAPEVPPAIDRDYPAKVRVKMETVEKTMKMDDGVEYRYWTFDGDVPGRMIRVREGDTVEVEFSNNPSSTVPHNVDFHAATGQGGGAAATFTAPGRTSTFSFKALQPGLYIYHCAVAPVGMHIANGMYGLILVEPKEGLPKVDKEFYIVQGDFYTKGKKGAQGLQPFDMDKAVAEQPEYVVFNGHVGSIAGDNALKAKAGETVRMYVGNGGPNLVSSFHVIGEIFDKVYVEGGKLINENVQSTIVPAGGSAIVEFKVDIPGSYTLVDHSIFRAFNKGALGQLKVEGAENPEIMTQKLSDTAYA
notes: the construct has no signal peptide; cytoplasmic 36.5 kDa protein; Holds one type 1 and one type 2 copper centre per monomer (2.0 ± 0.1 Cu per monomer); No removal of the His-tag is described; also called NgCuNiR; AniA
stoichiometry N: 3

Source: paper PMC10452240, “Biochemical Characterization of the Copper Nitrite Reductase from Neisseria gonorrhoeae” (Biomolecules, 2023)
